Consider one molecule from patent publication US5217864, “Replication initiator protein complex and methods of use thereof” (The Rockefeller University).

The data set concerns the target OTF1/NFIII (UniProt P14859 P14859:1-743). The data set can be described thus: EMSA; data not shown.

Sequence of OTF1/NFIII (P14859 whole entry, one chain of several): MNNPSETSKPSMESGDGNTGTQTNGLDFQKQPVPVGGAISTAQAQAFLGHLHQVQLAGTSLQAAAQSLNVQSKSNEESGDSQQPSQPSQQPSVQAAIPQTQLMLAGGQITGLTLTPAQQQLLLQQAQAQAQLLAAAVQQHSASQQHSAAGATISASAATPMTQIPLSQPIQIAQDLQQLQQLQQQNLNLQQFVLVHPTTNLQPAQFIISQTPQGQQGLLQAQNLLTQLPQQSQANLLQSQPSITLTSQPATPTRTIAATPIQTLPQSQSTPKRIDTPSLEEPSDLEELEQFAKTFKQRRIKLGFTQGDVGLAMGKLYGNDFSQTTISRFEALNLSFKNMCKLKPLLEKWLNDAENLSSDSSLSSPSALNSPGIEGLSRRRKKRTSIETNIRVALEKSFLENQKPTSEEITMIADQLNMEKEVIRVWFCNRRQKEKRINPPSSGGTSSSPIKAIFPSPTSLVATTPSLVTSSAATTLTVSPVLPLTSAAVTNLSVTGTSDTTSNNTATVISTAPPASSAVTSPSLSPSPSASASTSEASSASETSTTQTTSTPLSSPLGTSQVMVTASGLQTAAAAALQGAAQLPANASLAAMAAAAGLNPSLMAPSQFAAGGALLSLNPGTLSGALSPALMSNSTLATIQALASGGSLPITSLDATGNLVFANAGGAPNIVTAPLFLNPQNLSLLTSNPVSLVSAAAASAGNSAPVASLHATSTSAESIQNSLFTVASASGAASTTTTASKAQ

B1: OTF1 site at 5' end of 280 bp fragment (dsDNA)
DNA 1: ATTTTCAT
DNA 2: ATGAAAAT
On to B1, for which the binding result is reported as “binds”.
